Reference: publication PMC4317571

Experiments:
[1] = molecular target: p53 K382ac peptide (Homo sapiens) (UniProt P04637); details: cited from earlier work
bromodomain (BD) of p300 = test: NMR titration
[2] = molecular target: tandem Tudor domain (TTD) of p53-binding protein 1 (53BP1), wild type (UniProt Q12888); test: other fluorescence titration + NMR titration
[3] = molecular target: tandem Tudor domain (TTD) of p53-binding protein 1 (53BP1), wild type (UniProt Q12888); test: other fluorescence titration

Substance | Kd [1] | Kd (bromodomain (BD) of p300) | Kd [2] | Kd [3]
CBP bromodomain (from UniProt Q92793) | 187 µM |  |  | 
p53K381ac peptide (p53 acetylated at K381) (from UniProt P04637 377-386) |  | 241 µM | > 5000 µM | 
p53K381acK382me2 peptide (p53 acetylated at K381 and dimethylated at K382) (from UniProt P04637 377-386) |  | 282 µM |  | 0.76 µM
